Consider one substance from paper PMC10619557, “Crystal Structures of 6-Phosphogluconate Dehydrogenase from Corynebacterium glutamicum” (Journal of Microbiology and Biotechnology, 2023).

The target of the assay is 6-phosphogluconate dehydrogenase from Corynebacterium glutamicum ATCC 13032 (Corynebacterium glutamicum ATCC 13032). The experiment in a line: SEC; analytical, Superdex 200 Increase 10/300 GL; 1 ml at 1 mg/ml; 40 mM Tris-HCl pH 8.0, 150 mM NaCl; mass from a calibration curve. A general note: In gel filtration, larger molecules generally elute earlier.

Turning to “6-phosphogluconate dehydrogenase from Corynebacterium glutamicum ATCC 13032 (enzyme)”, the stoichiometry N (in general, a count of units in the complex or per binding partner) amounted to 2.
